US20260108617A1, “AUTO-TUNING DRUG REGULATOR CONSTRUCTIONS” (priority 2023, published 2026)

Legend:
[1] = molecular target: recombinant prostasin enzyme (Homo sapiens, UniProt Q16651); assay: Incubation with recombinant prostasin enzyme, LC/MS analysis of incapacitation byproduct; assay type: biochemical
Procedure: This is not observed in absence of the enzyme incubation.
Then in FIG. 10, incubation of the drug alone with the prostasin enzyme can be analyzed by LC/MS for the byproduct of incapacitation (the alkylation of the decoy yielding a 1-methylpiperazine-one).
The drug could be tested in similar ways as the other compounds.
The strategy of this example can be generalized for any peptide based PROTAC for TrkA or any other target.

[2] = Cell uptake by imaging of conjugated dancyl fluorophore; assay type: cell-based; details: data not shown
Text: Compound 9 was shown efficacious in these experiments.

Sequence of recombinant prostasin enzyme (Q16651 33-343, species assumed): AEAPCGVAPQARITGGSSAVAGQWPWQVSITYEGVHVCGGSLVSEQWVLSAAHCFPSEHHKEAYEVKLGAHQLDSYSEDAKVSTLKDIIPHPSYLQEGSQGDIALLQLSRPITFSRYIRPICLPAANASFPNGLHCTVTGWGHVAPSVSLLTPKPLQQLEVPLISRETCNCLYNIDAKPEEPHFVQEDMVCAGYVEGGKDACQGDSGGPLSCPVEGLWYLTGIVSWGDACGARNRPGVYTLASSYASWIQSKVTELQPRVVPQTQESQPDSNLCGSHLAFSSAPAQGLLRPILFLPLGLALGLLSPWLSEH

incapacitation byproduct seen by LC/MS ([1]; absence of the enzyme incubation) | incapacitation byproduct seen by LC/MS ([1]; incubated with recombinant prostasin enzyme) | Sequence | cell uptake [2]
not observed | independent activator byproduct | LFLGQARGGRRRRPPP | –
– | – | RRARRPRGRQAR | demonstrated for cell uptake
